Data taken from PMC6373967.
Read-outs that look alike come from different tables or passages of the source.

Legend:
CD155 (Homo sapiens) = CD155 (Homo sapiens) (UniProt P15151); conditions: cited from earlier work
nectin-1(143t) (human) = experiment: SPR; BIAcore 3000, 25°C, HBS-EP pH 7.4; about 2000 RU of nectin-1(346t) or nectin-1(143t) amine-coupled to a CM5 chip; hCD96t flowed at 50 ul/min, 2 min association and 2 min dissociation; 1:1 Langmuir model with drifting baseline, global fit
nectin-1(346t) (human) [1] = target: nectin-1(346t) (human) (UniProt Q15223); experiment: as above
nectin-1(346t) (human) [2] = target: nectin-1(346t) (human) (UniProt Q15223); experiment: as above; remark: listed apart in the source
nectin-1 (Homo sapiens) = nectin-1 (Homo sapiens) (UniProt Q15223); conditions: cited from earlier work

Sequence of UniProt P15151 (P15151 21-343): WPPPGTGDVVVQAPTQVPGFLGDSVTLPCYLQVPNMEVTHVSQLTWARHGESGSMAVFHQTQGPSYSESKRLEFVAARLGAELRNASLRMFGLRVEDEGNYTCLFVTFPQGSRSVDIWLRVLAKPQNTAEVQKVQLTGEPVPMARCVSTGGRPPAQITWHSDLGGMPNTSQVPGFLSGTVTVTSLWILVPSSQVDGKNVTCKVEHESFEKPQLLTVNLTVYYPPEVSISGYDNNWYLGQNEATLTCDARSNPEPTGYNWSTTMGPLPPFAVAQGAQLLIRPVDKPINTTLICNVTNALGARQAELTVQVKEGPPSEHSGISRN
Sequence of nectin-1 (Q15223 31-355): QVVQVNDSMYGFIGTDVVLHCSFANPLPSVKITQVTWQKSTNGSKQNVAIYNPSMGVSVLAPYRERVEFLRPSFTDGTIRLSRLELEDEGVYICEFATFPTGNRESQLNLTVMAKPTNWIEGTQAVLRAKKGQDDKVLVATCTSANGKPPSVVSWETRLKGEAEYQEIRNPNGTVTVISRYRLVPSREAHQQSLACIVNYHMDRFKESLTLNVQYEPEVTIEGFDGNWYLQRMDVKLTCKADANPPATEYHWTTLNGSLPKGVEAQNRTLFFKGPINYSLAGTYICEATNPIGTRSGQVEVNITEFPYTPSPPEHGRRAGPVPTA

CD96 (from UniProt P40200)
Kd (CD155 (Homo sapiens)): 37.6 nM

hCD96(516t) (domain or fragment)
Kd (nectin-1(143t) (human)): 3.22 µM
koff (nectin-1(143t) (human)): 0.012 s⁻¹
kon (nectin-1(143t) (human)): 3200 M⁻¹ s⁻¹
Kd (nectin-1(346t) (human) [1]): 2430 nM
koff (nectin-1(346t) (human) [1]): 0.0094 s⁻¹
kon (nectin-1(346t) (human) [1]): 3900 M⁻¹ s⁻¹
Kd (nectin-1(346t) (human) [2]): 2340 nM

nectin-1 (from UniProt Q15223)
Kd (nectin-1 (Homo sapiens)): 17.5 µM
